Measured values as given in patent US8642284B1, “Methods for identifying agents that alter NAD-dependent deacetylation activity of a SIR2 protein” (Massachusetts Institute of Technology, priority 1999, dated 2014).

System: NC(=O)c1ccc[n+]([C@@H]2O[C@H](COP(=O)([O-])OP(=O)(O)OC[C@H]3O[C@@H](n4cnc5c(N)ncnc54)[C@H](O)[C@@H]3O)[C@@H](O)[C@H]2O)c1
Assay: NAD-dependent deacetylation of di-acetylated H3 peptide by recombinant yeast Sir2p (HPLC)
Assay type: biochemical
Conditions: other: reaction about 50% of maximal level; pH 9.0
Protocol: The typical reaction of Sir2 deacetylase activity was performed in 50 μl of buffer containing 50 mM Tris-HCl [pH 9.0], 4 mM MgCl2, 0.2 mM DTT, variable concentration of cold nicotinamide adenine dinucleotide (NAD) or NAD derivatives (SIGMA®, MO), 5-10 μg of the purified recombinant Sir2 proteins, and 10 μg of the histone H3 N-terminal tail peptide (amino acid 1-20) di-acetylated at positions 9 and 14 (Upstate Biotechnology™, NY). […] To detect the ADP-ribosylation activity, 8 μCi of NAD 5′-[α-^32P]triphosphate (˜1000 Ci/mmol, Amersham Pharmacia Biotech™, NJ) was added to the same reaction containing 1 μM cold NAD. Histone H3 protein (4 μg) (Roche Molecular Biochemicals™, IN) were used for this assay. All reaction mixtures were incubated at room temperature for 1 hr. Trichostatin A and coumermycin A1 (SIGMA™) were prepared in dimethylsulfoxide (DMSO, SIGMA®), and 5 μl of solvent or inhibitor was added to the reactions prior to adding Sir2 proteins.
After the incubation, the products were precipitated at −20° C. overnight by adding 50 μl of distilled water and 25 μl of 100% trichloroacetic acid (TCA) solution. […] The chromatograms at the absorbance of 210 nm were digitally recorded and analyzed by Hewlett Packard ChemStation™ system (version A.06.03 [509]). […] PTH amino acid chromatograms were recorded and analyzed by the ABI Model 610A2.1 data integration/analysis system. […]

Sir2p (Saccharomyces cerevisiae S288C) was tested, and the Km was 100 µM.
